Assay results reported in US20220389118A1 (Chugai, published 2022).
Numbering of substitutions follows the chain as printed.

T1: human FcγRIIa type R extracellular domain with C-terminal His tag (human, UniProt P12318 34-217)
T1 construct: extracellular domain; also called FcγRIIaR; FcγRIIa(R)
T1 sequence (looked up): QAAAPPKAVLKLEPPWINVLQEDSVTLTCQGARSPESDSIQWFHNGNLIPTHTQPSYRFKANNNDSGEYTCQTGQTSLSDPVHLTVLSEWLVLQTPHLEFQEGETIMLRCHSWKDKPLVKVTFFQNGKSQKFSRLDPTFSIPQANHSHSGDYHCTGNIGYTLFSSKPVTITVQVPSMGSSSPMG

T2: human FcγRIIb extracellular domain with C-terminal His tag (human, UniProt P31994 43-217)
T2 construct: extracellular domain
T2 sequence (looked up): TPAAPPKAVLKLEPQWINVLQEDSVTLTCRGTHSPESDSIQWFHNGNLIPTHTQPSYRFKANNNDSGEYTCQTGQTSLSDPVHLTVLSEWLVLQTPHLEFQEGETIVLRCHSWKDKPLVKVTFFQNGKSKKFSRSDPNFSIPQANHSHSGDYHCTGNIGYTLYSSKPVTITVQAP

T3: human FcγRIIa type H extracellular domain with C-terminal His tag (human, UniProt P12318 34-217)
T3 construct: extracellular domain; also called FcγRIIaH; FcγRIIa(H)
T3 sequence (looked up): T1 sequence (looked up) with R134H

B1: IL6R-BP487/IL6R-L (antibody, human IgG1, kappa)
heavy: QVQLQESGPGLVKPSETLSLTCAVSGHSISHDHAWSWVRQPPGEGLEWIGFISYSGITNYNPSLQGRVTISRDNSKNTLYLQMNSLRAEDTAVYYCARSLARTTAMDYWGEGTLVTVSSASTKGPSVFPLAPSSKSTSGGTAALGCLVKDYFPEPVTVSWNSGALTSGVHTFPAVLQSSGLYSLSSVVTVPSSSLGTQTYICNVNHKPSNTKVDKKVEPKSCDKTHTCPPCPAPDLLGDDSVFLFPPKPKDTLMISRTPEVTCVVIDVAEEDGEVKFNWYVDGVEVHNAKTKPREEQYNSTYRVVSVLTVLHQDWLNGKEYKCKVSNKALPRPIEKTISKAKGQPREPQVYTLPPSRDELTKNQVSLTCLVKGFYPSDIAVEWESNGQPENNYKTTPMVLDSDGSFFLYSKLTVDKSRWQQGNVFSCSVMHEALHNHYTQESLSLSP
light: not shown
notes: copies: 2 + 2
B2: IL6R-BP489/IL6R-L (antibody, human IgG1, kappa)
heavy: B1 heavy with Y298D
light: not shown
notes: copies: 2 + 2
B3: IL6R-BP491/IL6R-L (antibody, human IgG1, kappa)
heavy: B1 heavy with D235E, Y298D, M398P
light: not shown
notes: also called IL6R-491/IL6R-L; copies: 2 + 2
B4: IL6R-BP496/IL6R-L (antibody, human IgG1, kappa)
heavy: B1 heavy with Y298D, R332A, M398P
light: not shown
notes: copies: 2 + 2
B5: IL6R-BP497/IL6R-L (antibody, human IgG1, kappa)
heavy: B1 heavy with A329G, M398P
light: not shown
notes: copies: 2 + 2
B6: IL6R-BP498/IL6R-L (antibody, human IgG1, kappa)
heavy: B1 heavy with M398L
light: not shown
notes: copies: 2 + 2
B7: IL6R-BP499/IL6R-L (antibody, human IgG1, kappa)
heavy: B1 heavy with Y298D, M398L
light: not shown
notes: copies: 2 + 2
B8: IL6R-BP502/IL6R-L (antibody, human IgG1, kappa)
heavy: B1 heavy with Y298D, A329G, M398P
light: not shown
notes: copies: 2 + 2
B9: IL6R-BP503/IL6R-L (antibody, human IgG1, kappa)
heavy: B1 heavy with Y298D, A329G
light: not shown
notes: copies: 2 + 2
B10: IL6R-BP511/IL6R-L (antibody, human IgG1, kappa)
heavy: B1 heavy with D235E, E274P, Y298D, M398P
light: not shown
notes: copies: 2 + 2
B11: IL6R-BP533/IL6R-L (antibody, human IgG1, kappa)
heavy: B1 heavy with A269G, Y298D, M398L
light: not shown
notes: copies: 2 + 2
B12: IL6R-BP536/IL6R-L (antibody, human IgG1, kappa)
heavy: B1 heavy with A269S, Y298D, A329G
light: not shown
notes: copies: 2 + 2
B13: IL6R-BP538/IL6R-L (antibody, human IgG1, kappa)
heavy: B1 heavy with D235E, A269S, M398P
light: not shown
notes: copies: 2 + 2
B14: IL6R-BP539/IL6R-L (antibody, human IgG1, kappa)
heavy: B1 heavy with D235E, A269G, E274P, Y298D, M398P
light: not shown
notes: copies: 2 + 2
B15: IL6R-BP540/IL6R-L (antibody, human IgG1, kappa)
heavy: B1 heavy with D235E, A269S, E274P, Y298D, M398P
light: not shown
notes: copies: 2 + 2
B16: IL6R-BP550/IL6R-L (antibody, human IgG1, kappa)
heavy: B1 heavy with D235E, A269G, E274D, Y298D, M398P
light: not shown
notes: copies: 2 + 2
B17: IL6R-BP438/IL6R-L (antibody, human IgG1, kappa)
heavy: B1 heavy with I266V, I334T, M398P
light: not shown
notes: copies: 2 + 2
B18: IL6R-BP558/IL6R-L (antibody, human IgG1, kappa)
heavy: B1 heavy with D235E, A269G, E274D, M398P
light: not shown
notes: copies: 2 + 2
B19: IL6R-BP510/IL6R-L (antibody, human IgG1, kappa)
heavy: B1 heavy with D235E, E274P, M398P
light: not shown
notes: copies: 2 + 2

Biological target: T1, human FcγRIIa type R extracellular …
Assay: SPR (Biacore), parent IL6R-B3/IL6R-L

Binder | KD(IIaR) parent/KD(IIaR) altered polypeptide
B1 | 28.3
B2 | 25.7
B3 | 9.3
B4 | 2.3
B5 | 12.9
B6 | 21.7
B7 | 22.3
B8 | 10.1
B9 | 19.4
B10 | 6.3
B11 | 9.2
B12 | 13.9
B13 | 5.4
B14 | 3.4
B15 | 5.2
B16 | 3.3

Biological target: T2, human FcγRIIb extracellular domain with …
Assay: SPR (Biacore), parent IL6R-B3/IL6R-L

Binder | KD(IIb) parent/KD(IIb) altered polypeptide
B1 | 2700
B2 | 3100
B3 | 1020
B4 | 168
B5 | 764
B6 | 1880
B7 | 2120
B8 | 840
B9 | 1810
B10 | 891
B11 | 756
B12 | 1040
B13 | 587
B14 | 369
B15 | 541
B16 | 406

Biological target: T2, human FcγRIIb extracellular domain with …
Assay: SPR (Biacore), ratio of KDs

Binder | KD(IIaH)/KD(IIb) | KD(IIaR)/KD(IIb)
B1 | 730 | 33.8
B2 | 870 | 42.8
B3 | 724 | 38.8
B4 | 201 | 25.5
B5 | 236 | 21
B6 | 564 | 30.8
B7 | 685 | 33.8
B8 | 352 | 29.5
B9 | 503 | 33.2
B10 | 1240 | 50.6
B11 | 634 | 29.3
B12 | 438 | 26.6
B13 | 568 | 38.6
B14 | 667 | 39
B15 | 803 | 36.6
B16 | 655 | 44.2

Biological target: T1, human FcγRIIa type R extracellular …
Assay: SPR (Biacore)

Binder | Kd [nM]
B17 | 180
B1 | 39
B2 | 43
B3 | 120
B4 | 470
B5 | 85
B6 | 51
B7 | 49
B8 | 110
B9 | 57
B10 | 180
B11 | 120
B12 | 79
B13 | 200
B14 | 330
B15 | 210
B16 | 340
B18 | 330

Biological target: T3, human FcγRIIa type H extracellular …
Assay: SPR (Biacore)

Binder | Kd [nM]
B17 | 1600
B1 | 840
B2 | 870
B3 | 2200
B4 | 3700
B5 | 960
B6 | 930
B7 | 1000
B8 | 1300
B9 | 860
B19 | 4000
B10 | 4300
B11 | 2600
B12 | 1300
B13 | 3000
B14 | 5600
B15 | 4600
B16 | 5000
B18 | 4900

Biological target: T4, human FcγRIa extracellular domain with C-terminal His tag (human, UniProt P12314 16-292)
T4 construct: extracellular domain
Assay: SPR (Biacore)

T4 sequence (P12314 16-292): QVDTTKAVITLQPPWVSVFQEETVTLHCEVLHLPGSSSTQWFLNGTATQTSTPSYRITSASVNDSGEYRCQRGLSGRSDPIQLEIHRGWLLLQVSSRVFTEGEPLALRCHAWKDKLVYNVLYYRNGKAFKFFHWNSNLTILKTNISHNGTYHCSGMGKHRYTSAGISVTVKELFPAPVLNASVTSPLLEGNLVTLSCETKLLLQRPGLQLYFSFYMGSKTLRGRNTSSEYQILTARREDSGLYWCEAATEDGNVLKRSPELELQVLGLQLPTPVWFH

Binder | Kd [nM]
B1 | 1.2
B2 | 1.3
B3 | 5.3
B4 | 1.2
B5 | 2.1
B6 | 1.3
B7 | 1.2
B8 | 2.1
B9 | 1.2
B19 | 6
B10 | 6
B11 | 7.7
B12 | 8.9
B13 | 55
B14 | 64
B15 | 96
B16 | 25

Biological target: T2, human FcγRIIb extracellular domain with …
Assay: SPR (Biacore)

Binder | Kd [nM]
B1 | 1.2
B2 | 1
B3 | 3
B4 | 18
B5 | 4.1
B6 | 1.7
B7 | 1.5
B8 | 3.7
B9 | 1.7
B19 | 3.8
B10 | 3.5
B11 | 4.1
B12 | 3
B13 | 5.3
B14 | 8.4
B15 | 5.7
B16 | 7.6
B18 | 9
